Data as given in paper doi:10.1101/2020.02.12.945170, “Regulated unbinding of ZAP70 at the T cell receptor by kinetic avidity” (bioRxiv, 2020).
Values belong to the binder of their own block, whether it stands above or below them. Square brackets hold non-standard residues; d marks the D form. Ends that are not written are not given here. * marks the point of attachment. Biotin = O=C1N[C@H]2[C@H](CS[C@H]2CCCCC(=O)*)N1; pY = N[C@@H](Cc1ccc(OP(=O)(O)O)cc1)C(=O)O

Tests used:
[1] = biological target: T1, ZAP70 tSH2-GFP (tandem SH2 domains of human ZAP70, amino acids 1-264, with C-terminal GFP) (human, UniProt P43403 1-264); assay: single particle tracking by TIRF microscopy; biotinylated ITAM3 peptides immobilised on coverslips coated with poly-L-lysine-PEG-biotin and streptavidin; ZAP70 tSH2-GFP or tSH2-Halo-Alexa647 at 200 nM in PBS/BSA with 1 mM DTT; 37°C; distributions of binding times fitted with exponentials (slow phase of a two-phase decay for the biphosphorylated peptide); details: both partners purified
T1 construct: tandem SH2 domains of human ZAP70 (Zeta-chain-associated protein kinase 70), amino acids 1-264; Cloned into pET21 between NdeI and NotI; source: E. coli BL21 (DE3), purified (Ni2+-NTA, Sephacryl S-200 size exclusion); not shown: GFP, C-terminal, kept
T1 sequence (looked up): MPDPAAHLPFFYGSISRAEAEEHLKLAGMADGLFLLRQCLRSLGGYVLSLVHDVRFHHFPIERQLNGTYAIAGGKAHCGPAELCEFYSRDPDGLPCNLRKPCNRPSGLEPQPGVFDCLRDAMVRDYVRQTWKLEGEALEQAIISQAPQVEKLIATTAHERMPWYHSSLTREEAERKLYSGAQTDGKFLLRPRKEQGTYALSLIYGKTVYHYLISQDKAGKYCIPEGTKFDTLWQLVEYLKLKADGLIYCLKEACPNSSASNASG

[2] = biological target: T1, ZAP70 tSH2-GFP (tandem SH2 domains of …); assay: SPR; Biacore S200, 37°C, HBS-EP (10 mM HEPES pH 7.4, 150 mM NaCl, 1 mM EDTA, 0.005% Tween P20), 50 µl/min; biotinylated peptides or Avi-CD3ζ ITAM3 immobilised on streptavidin-coupled CM5 chips, ZAP70 tSH2-GFP injected; 1:1 binding model, 'effective' constants for the biphosphorylated peptide; on Avi-CD3ζ ITAM3 also ABA injections of 500 nM ZAP70 with CD45 cytoplasmic domain; details: both partners purified

koff [1]: 4.75 ± 0.14 s⁻¹
B1: ITAM3 C (C-monophosphorylated CD3ζ ITAM3 peptide) (peptide)
peptide: Biotin-GKGHDLLYQGLSTATKDT[pY]DALHMQ
notes: peptide derived from the membrane-distal ITAM of CD3ζ (ITAM3); also called ITAM C; monophosphorylated ITAM3 C; source: synthetic peptide; bought: PeptideSynthetics (>95% pure)

Kd [2]: 96 nM
koff [2]: 0.227 s⁻¹
kon [2]: 1.89e+06 M⁻¹ s⁻¹
koff [1]: 0.368 ± 0.011 s⁻¹
B2: ITAM3 NC (biphosphorylated CD3ζ ITAM3 peptide) (peptide)
peptide: Biotin-GKGHDLL[pY]QGLSTATKDT[pY]DALHMQ
notes: peptide derived from the membrane-distal ITAM of CD3ζ (ITAM3); also called ITAM NC; biphosphorylated ITAM3; source: synthetic peptide; bought: PeptideSynthetics (>95% pure)

koff [1]: 11.4 ± 0.011 s⁻¹
B3: ITAM3 N (N-monophosphorylated CD3ζ ITAM3 peptide) (peptide)
peptide: Biotin-GKGHDLL[pY]QGLSTATKDTYDALHMQ
notes: peptide derived from the membrane-distal ITAM of CD3ζ (ITAM3); also called ITAM N; monophosphorylated ITAM3 N; source: synthetic peptide; bought: PeptideSynthetics (>95% pure)
